{
  "source": "patent US20070154994A1",
  "binders": {"B1": {"name": "untagged CtermTβRIIIED (receptor, UniProt P26342 576-782, looked up)", "chain": "RQLRNPSGFQGQLDGNATFNMELYNTDLFLVPSPGVFSVAENEHVYVEVSVTKADQDLGFAIQTCFLSPYSNPDRMSDYTIIENICPKDDSVKFYSSKRVHFPIPHAEVDKKRFSFLFKSVFNTSLLFLHCELTLCSRKKGSLKLPRCVTPDDACTSLDATMIWTMMQNKKTFTKPLAVVLQVDYKENVPSTKDSSPIPPPPPQIFH"}},
  "key": {"[1]": {"target": "Recombinant human TGF-β1 (human) (UniProt P01137)", "sequence (P01137 279-390 limits assumed)": "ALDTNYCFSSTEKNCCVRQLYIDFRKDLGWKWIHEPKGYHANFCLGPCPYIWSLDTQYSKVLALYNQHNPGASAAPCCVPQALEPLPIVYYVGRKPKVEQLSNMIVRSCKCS", "experiment": "SPR, TGF-β1 coupled, rearrangement model, rearrangement step"}, "[2]": {"target": "Recombinant human TGF-β1 (human) (UniProt P01137)", "experiment": "SPR, TGF-β1 coupled, rearrangement model, kass#1"}, "[3]": {"target": "Recombinant human TGF-β1 (human) (UniProt P01137)", "experiment": "SPR, TGF-β1 coupled, rearrangement model, Kdapp"}, "[4]": {"target": "Recombinant human TGF-β1 (human) (UniProt P01137)", "experiment": "SPR, TGF-β1 coupled, rearrangement model, Kdiss#1"}, "[5]": {"target": "Recombinant human TGF-β1 (human) (UniProt P01137)", "experiment": "SPR, TGF-β1 coupled, rearrangement model, Kd 1 (initial binding step)"}},
  "data": [
    {"binder": "B1", "values": [
      {"measurement": "kass#2", "setting": "[1]", "result": 0.0029, "unit": "s⁻¹"},
      {"measurement": "kd 2 (no unit)", "setting": "[1]", "result": 0.73, "unit": "no unit"},
      {"measurement": "kdiss#2", "setting": "[1]", "result": 0.00217, "unit": "s⁻¹"},
      {"measurement": "kon", "setting": "[2]", "result": 75000, "unit": "M⁻¹ s⁻¹"},
      {"measurement": "Kd", "setting": "[3]", "result": 302, "unit": "nM"},
      {"measurement": "koff", "setting": "[4]", "result": 0.0535, "unit": "s⁻¹"},
      {"measurement": "Kd", "setting": "[5]", "result": 713, "unit": "nM"}
    ]}
  ]
}
